Measurements reported in PMC9938168, “Structural basis for clearing of ribosome collisions by the RQT complex” (Nature Communications, 2023).
Values belong to the binder of their own block, whether it stands above or below them.

Key:
Conditions in all cases: both partners purified
[1] = biological target: T1, Ski2-like helicase 1 (Slh1), subunit of the RQT complex, wild type (yeast, UniProt P53327 1-1967); experiment: cryo-EM structure; pre-splitting samples: ubiquitinated CGN6-stalled disomes with wild-type RQT, or ubiquitinated CGN12-stalled disomes with K316R-RQT (RQT*), 1 mM ATP, 5 min at 25 °C; RQT seen on the lead ribosome of intact disomes
T1 construct: Slh1 (Rqt2), ATP-dependent Ski2-like RNA helicase of yeast RQT, 1967 amino acids; NTC residues 217-1122 and CTC residues 1123-1967 modelled, N-terminal domain 1-217 not visible; Co-purified with Cue3 and Rqt4 as the trimeric RQT complex; Eluted by TEV cleavage of the FTP tag; also called Rqt2; Slh1-FTP; source: yeast strain overexpressing RQT components (Slh1-FTP, Cue3, Rqt4), purified …

[2] = biological target: T2, Slh1-K316R, ATPase-deficient Walker A mutant of the N-terminal cassette, subunit of K316R-RQT (yeast, UniProt P53327 1-1967, K316R); experiment: as above
T2 construct: Slh1 (Rqt2) of yeast RQT, 1967 amino acids, with the ATPase-deficient mutation K316R; Probably made and tagged like the wild-type Slh1-FTP; also called K316R-Slh1; source: purified RQT complex (K316R-Slh1 mutant)

[3] = biological target: T1, Ski2-like helicase 1 (Slh1), subunit of …; experiment: cryo-EM structure; RQT-80S complex in conformation C1 (classical POST state); ubiquitinated CGN12-stalled disomes incubated 5 min at 25 °C with purified wild-type RQT and 1 mM ATP (post-splitting sample), vitrified; 80S refined to 2.4 Å, RQT locally refined to 3.5 Å

T1 sequence (P53327 whole entry, the tested form may be a part, one chain of several): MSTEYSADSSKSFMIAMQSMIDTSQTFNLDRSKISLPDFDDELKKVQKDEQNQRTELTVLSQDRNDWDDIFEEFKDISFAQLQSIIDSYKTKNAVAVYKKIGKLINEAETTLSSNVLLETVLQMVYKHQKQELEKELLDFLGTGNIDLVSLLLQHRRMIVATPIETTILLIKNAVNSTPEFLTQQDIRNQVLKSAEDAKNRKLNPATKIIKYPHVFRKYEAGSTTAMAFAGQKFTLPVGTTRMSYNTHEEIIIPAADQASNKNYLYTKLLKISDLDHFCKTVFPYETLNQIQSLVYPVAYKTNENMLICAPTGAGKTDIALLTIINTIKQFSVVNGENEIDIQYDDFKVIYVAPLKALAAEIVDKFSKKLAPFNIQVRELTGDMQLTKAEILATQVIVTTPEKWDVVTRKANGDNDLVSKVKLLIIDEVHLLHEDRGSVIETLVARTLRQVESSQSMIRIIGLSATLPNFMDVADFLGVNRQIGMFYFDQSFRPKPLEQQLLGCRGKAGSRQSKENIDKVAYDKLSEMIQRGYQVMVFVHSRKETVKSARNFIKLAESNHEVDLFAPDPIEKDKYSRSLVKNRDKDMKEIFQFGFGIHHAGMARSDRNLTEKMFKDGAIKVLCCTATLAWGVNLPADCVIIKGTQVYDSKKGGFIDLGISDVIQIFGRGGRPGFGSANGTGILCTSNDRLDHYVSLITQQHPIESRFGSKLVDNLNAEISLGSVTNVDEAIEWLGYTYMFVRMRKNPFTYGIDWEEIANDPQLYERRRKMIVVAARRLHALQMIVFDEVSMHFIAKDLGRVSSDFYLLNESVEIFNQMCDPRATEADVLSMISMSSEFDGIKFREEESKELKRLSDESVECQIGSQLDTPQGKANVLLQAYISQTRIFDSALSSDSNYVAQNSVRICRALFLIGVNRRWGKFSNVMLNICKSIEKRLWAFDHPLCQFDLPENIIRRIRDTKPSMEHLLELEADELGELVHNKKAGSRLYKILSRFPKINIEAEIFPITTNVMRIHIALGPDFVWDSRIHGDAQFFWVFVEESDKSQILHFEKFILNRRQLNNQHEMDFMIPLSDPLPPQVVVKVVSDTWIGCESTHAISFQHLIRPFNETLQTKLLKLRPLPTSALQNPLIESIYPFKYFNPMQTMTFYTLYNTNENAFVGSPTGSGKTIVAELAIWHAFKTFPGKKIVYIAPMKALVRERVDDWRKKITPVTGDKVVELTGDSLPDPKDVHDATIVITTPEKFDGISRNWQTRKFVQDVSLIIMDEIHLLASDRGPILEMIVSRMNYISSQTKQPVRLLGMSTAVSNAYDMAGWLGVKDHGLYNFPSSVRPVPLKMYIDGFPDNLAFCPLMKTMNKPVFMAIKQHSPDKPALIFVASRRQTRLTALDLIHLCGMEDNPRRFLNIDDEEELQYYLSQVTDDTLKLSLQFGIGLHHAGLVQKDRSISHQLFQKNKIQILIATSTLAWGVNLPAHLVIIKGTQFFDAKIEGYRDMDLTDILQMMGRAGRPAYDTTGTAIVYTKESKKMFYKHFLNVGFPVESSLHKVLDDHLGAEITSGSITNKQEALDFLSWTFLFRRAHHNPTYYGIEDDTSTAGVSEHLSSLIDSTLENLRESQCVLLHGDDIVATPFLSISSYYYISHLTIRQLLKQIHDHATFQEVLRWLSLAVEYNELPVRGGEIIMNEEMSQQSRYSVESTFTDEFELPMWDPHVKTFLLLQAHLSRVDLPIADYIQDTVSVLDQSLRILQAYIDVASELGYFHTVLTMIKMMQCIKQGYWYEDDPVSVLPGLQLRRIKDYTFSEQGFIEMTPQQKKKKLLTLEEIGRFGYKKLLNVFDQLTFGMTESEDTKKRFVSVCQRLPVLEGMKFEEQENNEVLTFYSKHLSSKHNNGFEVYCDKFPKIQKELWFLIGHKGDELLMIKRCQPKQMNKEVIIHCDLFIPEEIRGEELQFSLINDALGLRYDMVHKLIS
T2 sequence (P53327 whole entry K316R): as the sequence (P53327 whole entry, the tested form may be a part, one chain of several) above, with K316R counted along it

binding result [1]: binds | binding result [2]: binds
B1: Cue3 (Rqt3), ubiquitin-binding CUE domain containing subunit of the RQT complex (natural protein, yeast, UniProt P53137 1-624, looked up)
chain: MLSRYNRVIEINGGNADISLPIVKFPPFKLRAQLIEKDPVVWLHLIETYVTYFEYLMQGANVELLDESTLDHLRLFLRTYLHEIADEEGKLLSLGINHDVSEQLYLLKGWIFSLIKKCGLLHLQIFGDSLWNLIKVYVRRNPDSIRGLIDGSLKPRINTQRVQLDKSYQVQQHLKQLIESGKFKRIDLRCVEDLLSAKSMQPNKFAENFFTANWIEILEALWAKGQGRGHKEARELIIISLFSVSADRLLKITKELGISNFETLALYPLLGTMLINEGVHKRLPDLKSKLLFLNLGGLSMDEGDHMSYPTSSGTEVNEEQLSALMELFPQFSKYQLSQTLLAYDNNIELVTNKIFEDPTIIEAFSREPAEEEVEPVSDGDNASFTEELSILDRGDSSKNKELDKKIISEGVPDELRNKTLTRALKLLYEADEDERDDTYDEADVNRSDPSKRIGLQEDEESYDTKDDSNEVRQDHNYHIVEAYLWNLLKEDPKLFERSKRGTKVRKTMKEMTSWSDEKIEGWCRMLERSPTRARLLEKKFMFKGNSKTGKTSYVHNRDSQNDGNVVKEQAKQKKSENIKKHEPQSTEQKKRQHAKNEKRKGARANHNRKKGHDKKLARAGNNAI
notes: Cue3 (Rqt3) of yeast RQT; only the N-terminal helical domain 1-297 modelled; CUE domain 298-360, four-helix bundle 468-541 and C-terminus 542-624 not visible

binding result [1]: binds | binding result [2]: binds
B2: Rqt4, zinc-finger containing subunit of the RQT complex (natural protein, yeast)
chain: MTRKQAIDYAIKQVPQILPLEESDVKALCEQVLSTSSDDPEQIASKFLEFLGHEDLSFEFVMKFNELLNQNDKKEEKKTKNVHLEHTAPTSWKNESKQPTNNYINKKGDEKPKKLKDEKKSSTTRPTVQPSNQSTQSNPIKEKKEHRSKGKLQSLQEIDEAIKMLELRDSGSSKNCNCQGTRHPVFDIAPNCLHCGKVVCVIEGLNKGKCGHCHEQLISDNERTQMVEILNQEKNELNGSSSSLSNASNGANVPKKKTKTYKITSGMGKNLFAEQDKLFDFIERKRERERKRNEVLKLQEEKEESEAKERQASEHDHKAEENPELLAAQERLDRLLYFQDTSAERTKIIDNASDFDMNQEVGLWGSARERALALKKQQRNLRKWEKVEKERNGRREKYVVSMNIGSNGKVTMTEVPKDTENVIAGSDDDISDISDEEDISDLKHIHALKSEINTTKSLENLHLQSKAWDYERDKKQFDRPTYVKKNSDTAQQNRKTEEKAHDMQAYDLKSRVQVDQNADASVEQNILAVL
notes: Rqt4 of yeast RQT; two parts modelled (residues 171-219 and 323-381); PWI-like domain 1-74, helices flanking the zinc finger and the C-terminus not visible

binding result [3]: binds
B3: ribosomal protein uS5 of the 40S subunit (natural protein, UniProt P25443 1-254, looked up)
chain: MSAPEAQQQKRGGFGGRNRGRPNRRGPRNTEEKGWVPVTKLGRLVKAGKITTIEEIFLHSLPVKEFQIIDTLLPGLQDEVMNIKPVQKQTRAGQRTRFKAVVVVGDSNGHVGLGIKTAKEVAGAIRAGIIIAKLSVIPIRRGYWGTNLGQPHSLATKTTGKCGSVTVRLIPAPRGSGIVASPAVKKLLQLAGVEDVYTQSNGKTRTLENTLKAAFVAIGNTYGFLTPNLWAEQPLPVSPLDIYSDEASAQKKRF
notes: uS5 (Rps2), 40S ribosomal protein of yeast; its usually flexible N-terminus is seen as extra density; Stood in the assay as part of the whole 80S ribosome; source: endogenous, in ribosomes of a yeast cell-free translation extract; ribosome-nascent chain complexes purified (His-tag Dynabeads, sucrose gradient)

binding result [3]: binds
B4: ribosomal protein uS3 of the 40S subunit (natural protein, UniProt P05750 1-240, looked up)
chain: MVALISKKRKLVADGVFYAELNEFFTRELAEEGYSGVEVRVTPTKTEVIIRATRTQDVLGENGRRINELTLLVQKRFKYAPGTIVLYAERVQDRGLSAVAQAESMKFKLLNGLAIRRAAYGVVRYVMESGAKGCEVVVSGKLRAARAKAMKFADGFLIHSGQPVNDFIDTATRHVLMRQGVLGIKVKIMRDPAKSRTGPKALPDAVTIIEPKEEEPILAPSVKDYRPAEETEAQAEPVEA
notes: uS3 (Rps3), 40S ribosomal protein of yeast, part of the stalled ribosome; Stood in the assay as part of the whole 80S ribosome or disome, which had been ubiquitinated in vitro with Hel2; source: endogenous, in ribosomes of a yeast cell-free translation extract; ribosome-nascent chain complexes purified (His-tag Dynabeads, sucrose gradient)

binding result [3]: binds
B5: RACK1 (Asc1) of the 40S head (natural protein, UniProt P38011 1-319, looked up)
chain: MASNEVLVLRGTLEGHNGWVTSLATSAGQPNLLLSASRDKTLISWKLTGDDQKFGVPVRSFKGHSHIVQDCTLTADGAYALSASWDKTLRLWDVATGETYQRFVGHKSDVMSVDIDKKASMIISGSRDKTIKVWTIKGQCLATLLGHNDWVSQVRVVPNEKADDDSVTIISAGNDKMVKAWNLNQFQIEADFIGHNSNINTLTASPDGTLIASAGKDGEIMLWNLAAKKAMYTLSAQDEVFSLAFSPNRYWLAAATATGIKVFSLDPQYLVDDLRPEFAGYSKAAEPHAVSLAWSADGQTLFAGYTDNVIRVWQVMTAN
notes: RACK1 (Asc1), protein at the back side of the 40S head of the yeast ribosome; Stood in the assay as part of the whole 80S ribosome; source: endogenous, in ribosomes of a yeast cell-free translation extract; ribosome-nascent chain complexes purified (His-tag Dynabeads, sucrose gradient)
